Source: patent publication US20230227577A1 (MYTHIC THERAPEUTICS, published 2023)

Legend:
[1] = molecular target: T1, recombinant human DLL3 protein (human, UniProt Q9NYJ7 27-492, limits assumed); assay: Fortebio Octet Red, DLL3 immobilised on tips, dilution series of the VHH, 1:1 binding model; koff error 4.12E-06; Full R2 0.9862
T1 construct: also called rhu DLL3; human biotinylated DLL3
T1 sequence (looked up): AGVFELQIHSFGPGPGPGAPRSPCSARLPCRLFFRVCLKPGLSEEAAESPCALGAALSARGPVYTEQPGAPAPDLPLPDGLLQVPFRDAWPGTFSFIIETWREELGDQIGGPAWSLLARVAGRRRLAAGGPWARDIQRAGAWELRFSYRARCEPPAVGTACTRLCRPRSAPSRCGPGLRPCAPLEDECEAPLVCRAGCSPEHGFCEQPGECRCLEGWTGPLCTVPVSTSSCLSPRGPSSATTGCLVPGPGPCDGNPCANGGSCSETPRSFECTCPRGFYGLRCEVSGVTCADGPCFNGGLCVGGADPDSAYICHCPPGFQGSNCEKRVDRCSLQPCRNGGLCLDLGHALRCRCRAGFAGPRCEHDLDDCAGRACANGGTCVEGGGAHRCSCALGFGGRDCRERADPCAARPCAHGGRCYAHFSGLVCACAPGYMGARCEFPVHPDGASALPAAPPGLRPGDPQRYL
Method: (§1) Additional experiments were carried out to further characterize the binding properties of the anti-DLL3 constructs. Binding properties tested include dissociation constant (KD), off-rate (koff), binding to DLL3 protein by ELISA and binding to CHO cells expressing human, cyno or mouse DLL3. To obtain off-rate (koff), human biotinylated DLL3 was immobilized on Octet SA tips, and cynomolgus or mouse DLL3 was immobilized on Octet AR2G tips. For each DLL3 protein, the binding to a dilution series of each anti-DLL3 construct was measured using Fortebio Octet Red. The dissociation constant (KD), off-rate (koff) and other kinetic parameters for each anti-DLL3 construct were calculated using a 1:1 binding model. In addition, binding of these anti-DLL3 constructs to CHO cells expressing human, cyno or mouse DLL3 protein was analyzed using flow cytometry (FACS).

mouse DLL3 on CHO cells = molecular target: T2, mouse DLL3 on CHO cells (mouse, UniProt O88516 33-592); assay: flow cytometry (FACS) on CHO cells expressing mouse DLL3
T2 construct: whole, on cells; also called CHO cells expressing mouse DLL3
T2 sequence (looked up): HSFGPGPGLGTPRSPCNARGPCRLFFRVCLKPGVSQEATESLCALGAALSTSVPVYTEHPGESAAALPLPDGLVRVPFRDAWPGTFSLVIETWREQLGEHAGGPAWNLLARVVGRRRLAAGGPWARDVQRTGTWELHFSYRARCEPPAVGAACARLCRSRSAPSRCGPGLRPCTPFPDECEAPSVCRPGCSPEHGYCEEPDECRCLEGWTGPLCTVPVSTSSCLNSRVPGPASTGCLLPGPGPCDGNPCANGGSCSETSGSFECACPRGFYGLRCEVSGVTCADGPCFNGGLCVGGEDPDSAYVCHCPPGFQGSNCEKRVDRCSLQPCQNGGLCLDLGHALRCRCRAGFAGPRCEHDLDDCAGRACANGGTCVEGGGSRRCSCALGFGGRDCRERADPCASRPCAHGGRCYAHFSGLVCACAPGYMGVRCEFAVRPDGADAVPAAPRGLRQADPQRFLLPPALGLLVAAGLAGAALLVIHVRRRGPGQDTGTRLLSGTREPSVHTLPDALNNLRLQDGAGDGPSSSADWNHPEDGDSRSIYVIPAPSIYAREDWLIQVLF
Method: as §1

[2] = molecular target: T1, recombinant human DLL3 protein; assay: Fortebio Octet Red, DLL3 immobilised on tips, dilution series of the VHH, 1:1 binding model; kon error 5.82E+02; Full R2 0.9862
Method: as §1

[3] = molecular target: T1, recombinant human DLL3 protein; assay: Fortebio Octet Red, DLL3 immobilised on tips, dilution series of the VHH, 1:1 binding model; KD error 1.90E-10; Full R2 0.9862
Method: as §1

DLL3 (ELISA DLL3) = molecular target: T3, DLL3 (ELISA DLL3); assay: ELISA, ratio of the signal on DLL3 to the signal on the control
T3 construct: also called DLL3 protein in ELISA
T3 chain: T1 sequence (looked up)

[4] = molecular target: T4, DLL3 target antigen coated on Octet SA tips (binning experiment) (Homo sapiens (Human), UniProt Q9NYJ7 27-492, Probably biotinylated for capture on streptavidin (SA) tips. The site is not stated.); assay: Octet binning on DLL3-coated SA tips; competitor: DLL3 BiTEs
T4 sequence: T1 sequence (looked up)
Method: (§2) Antibody binning experiments were carried out for 5 anti-DLL3 VHHs and an anti-human DLL3 BiTE (SEQ ID NO: 756). The target antigen was coated on a series of Octet SA tips. Each series of tips was first soaked in a periplasmic extract containing one specific VHH. After the response signals reached saturation, the tips were transferred to a mix of PEs containing again the first VHH (at the same concentration) plus a different VHH (termed secondary VHH) for each tip of the series. Secondary VHH that still bind the target antigen in the presence of the first VHH will show an increased response, as compared to the binding response of the first VHH alone. This was repeated for each VHH as primary VHH until all VHH were tested against each other in both directions (as primary and as secondary binder). From the response data, the bins were deduced for each VHH. 2HCE117 and 3HCE4 show competition with the human DLL3 BiTEs, whereas 3HCE56 and 3HCE87 show a partial competition.

[5] = molecular target: T4, DLL3 target antigen coated on Octet SA …; assay: Octet binning on DLL3-coated SA tips; competitor: 2HCE117
Method: as §2

[6] = molecular target: T4, DLL3 target antigen coated on Octet SA …; assay: Octet binning on DLL3-coated SA tips; competitor: 3HCE56
Method: as §2

mouse DLL3 protein = molecular target: T5, mouse DLL3 protein (mouse, UniProt O88516 33-490, limits assumed); assay: Octet (DLL3 on AR2G tips), ELISA and FACS; values only in FIG. 3
T5 construct: also called murine DLL3
T5 sequence (looked up): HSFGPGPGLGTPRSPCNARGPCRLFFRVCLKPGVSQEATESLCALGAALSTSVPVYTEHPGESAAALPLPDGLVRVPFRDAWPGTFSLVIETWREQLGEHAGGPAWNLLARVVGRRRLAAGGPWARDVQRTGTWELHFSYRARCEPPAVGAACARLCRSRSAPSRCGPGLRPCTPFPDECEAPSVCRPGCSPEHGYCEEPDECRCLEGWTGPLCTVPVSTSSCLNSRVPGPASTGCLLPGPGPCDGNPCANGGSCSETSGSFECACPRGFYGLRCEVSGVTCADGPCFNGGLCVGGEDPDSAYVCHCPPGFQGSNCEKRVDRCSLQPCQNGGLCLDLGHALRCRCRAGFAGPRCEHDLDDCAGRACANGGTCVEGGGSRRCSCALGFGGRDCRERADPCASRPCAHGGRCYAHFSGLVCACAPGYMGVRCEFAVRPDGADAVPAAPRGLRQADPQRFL

[7] = molecular target: T4, DLL3 target antigen coated on Octet SA …; assay: Octet binning on DLL3-coated SA tips; competitor: 2HCE27
Method: as §2

[8] = molecular target: T4, DLL3 target antigen coated on Octet SA …; assay: Octet binning on DLL3-coated SA tips; competitor: 3HCE87
Method: as §2

[9] = molecular target: T4, DLL3 target antigen coated on Octet SA …; assay: Octet binning on DLL3-coated SA tips; competitor: 3HCE4
Method: as §2

- koff [1]: 0.00146 s⁻¹
- binding result (mouse DLL3 on CHO cells): binds
- kon [2]: 68500 M⁻¹ s⁻¹
- Kd [3]: 21.3 nM
- DLL3 / control (DLL3 (ELISA DLL3)): 18.5
- binning response (unit not given) [4]: 44.1
- binning response (unit not given) [5]: 1110
- binning response (unit not given) [6]: 0
- binding result (mouse DLL3 protein): binds
- binning response (unit not given) [7]: -3.58
- binning response (unit not given) [8]: -99.1
- binning response (unit not given) [9]: -79.6
B1: 3HCE56 anti-DLL3 VHH (VHH)
VHH: QVQLQESGGGLVQAGGSLRLSCAASGRTFSVDAMGWLRQAPGKEREFVVVIDWTGGSTAYADSVKGRFTISRDNARNTVYLQMNNLKPEDTGVYYCAARERSRTAYDYWGQGTQVTVSS
notes: In the binning assay it was used as a periplasmic extract
